# Reference: patent US20260258410
# System: T1, ADAR2 R2D E488Q (dsRBD2 + deaminase domain) E488Q (Homo sapiens), P78563-2
# T1 sequence: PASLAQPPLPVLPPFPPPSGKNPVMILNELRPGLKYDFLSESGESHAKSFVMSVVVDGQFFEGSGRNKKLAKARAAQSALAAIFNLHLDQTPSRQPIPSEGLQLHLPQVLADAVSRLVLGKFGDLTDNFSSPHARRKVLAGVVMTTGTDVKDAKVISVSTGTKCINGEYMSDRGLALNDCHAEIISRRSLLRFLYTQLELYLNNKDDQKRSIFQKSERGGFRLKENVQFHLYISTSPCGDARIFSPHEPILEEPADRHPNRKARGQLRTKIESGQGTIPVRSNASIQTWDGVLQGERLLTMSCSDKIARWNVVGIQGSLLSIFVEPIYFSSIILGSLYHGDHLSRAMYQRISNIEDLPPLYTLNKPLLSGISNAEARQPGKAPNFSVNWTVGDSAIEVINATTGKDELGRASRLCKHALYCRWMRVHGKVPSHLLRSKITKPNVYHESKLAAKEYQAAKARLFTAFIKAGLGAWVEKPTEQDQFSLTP
# Test: EMSA
# Settings: 8-azanebularine at position 13 of SEQ 7; protein 0.25-256 nM
sequence,measurement,value
GCUCGCGAUGCGNGAGGGCUCUGAUAGCUACG / CGUAGCUAUCAGAGCCCCCCGGCAUCGCGAGC [32 bp GLI1 GG RNA with 8-azanebularine],Kd,6 nM
